Experimental data as given in patent US12186374B2 (Sanofi-Aventis Deutschland GmbH, priority 2014, dated 2025).

Legend:
[1] = test system: patients with T2DM; assay: Average 7-point SMPG change from baseline to Week 30 (Example 3); type: in vivo, human; details: mITT population
From the text: In yet another aspect of the present invention, the composition or combination as described herein can be used for improving average 7-point SMPG profile. Self-monitored plasma glucose (SMPG)”, as used herein, is in particular the “7-point Self Monitored Plasma Glucose”. “7-point Self Monitored Plasma Glucose” in particular refers to the measurement of plasma glucose seven times a day and calculation of the average plasma glucose concentration therefrom. The “7-point Self Monitored Plasma Glucose” value is in particular an average plasma glucose concentration including fasting and postprandial conditions. In particular, measurements of plasma glucose concentration are performed pre-breakfast, post-breakfast (e.g. 2-hour post-breakfast), pre-lunch, post-lunch (e.g. 2-hour post-lunch), pre-dinner, post-dinner (e.g. 2-hour post-dinner) and at bed-time. The treatment by the combination of the present invention, as described herein, can improve the self-monitored plasma glucose.
The 7-point SMPG profile should be measured at the following 7 points: pre-prandial and 2 hours postprandial for breakfast, lunch, dinner and at bedtime. Two hours postprandial (breakfast, lunch and dinner) is defined as 2 hours after the start of the meal.
The patients are requested to perform 7-point SMPG profile measurement over a single 24-hour period on 2 Different Days in the Week Before V6 (Week 0), V15 (Week 12), and V21 (week 30, end of treatment assessment visit). All SMPG values measured on these days will be recorded in diary and transferred into the e-CRF.
Similar MMRM method or analysis of covariance (ANCOVA) was applied on continuous secondary efficacy endpoints and the Cochran-Mantei-Haenszel method stratified by randomization strata was applied for categorical efficacy endpoints.

[2] = test system: patients with T2DM; parameters: species or system human; details: in vivo
From the text: The mission of the ARAC will be to adjudicate, in a timely manner, all allergic, or possible allergic events.
In case a patient experiences an allergic reaction or an allergic-like reaction this has to be reported as an adverse event and recorded in the e-CRF on the specific AE form for suspected allergic event. Additional information is collected on specific allergic reaction complementary form. Allergic reaction or possible allergic reaction will be adjudicated by the ARAC (Section 5.4.2).
The number (%) of patients with events adjudicated as allergic reactions by ARAC and with events adjudicated by ARAC as possibly related to the IMP will be summarized by treatment group. All the allergic events reported by the investigators on the AE form for suspected allergic event and its associated complementary forms (confirmed or not confirmed by ARAC) will be listed.

[3] = test system: patients with T2DM; parameters: species or system human; details: in vivo; remark: listed apart in the source
From the text: (§1) In case the investigator or the patient recognizes any signs of local intolerability at injection site this should be recorded on the standard AE page in the e-CRF. AEs related to local intolerability at the injection site will be identified by searching the term “injection site” in either the PTs coded from the investigator reported terms or the PTs coded from the ARAC diagnosis terms. The number (%) of patients with related events will be summarized by treatment group.

[4] = test system: patients with Type 2 diabetes mellitus (T2DM); parameters: species or system human; details: in vivo
From the text: as §1

[5] = test system: patients with Type 2 diabetes mellitus (T2DM); assay: Patients with HbA1c ≤6.5% or <7% at Week 30 (Example 2); type: in vivo, human; details: mITT population
From the text: Efficacy analysis was based on modified intent-to-treat (mITT) population using efficacy assessments collected during the study, including those obtained after IMP discontinuation or introduction of rescue therapy. The mITT population consisted of all randomized patients who had both a baseline assessment and at least one post-baseline assessment of any primary or secondary efficacy variables.
Similar MMRM method or ANCOVA was applied on continuous secondary efficacy endpoints and Cochran-Mantei-Haenszel method stratified by randomization strata was applied on categorical efficacy endpoints.

## Gly(A21)-Arg(B31)-Arg(B32)-human insulin [Insulin Glargine]
[1]; MMRM
  Average of 7-point SMPG, change from baseline to Week 30, LS Mean (SE): −0.60 (0.130) mmol/L
[1]
  Average of 7-point SMPG at Week 30, Mean (SD): 8.62 (1.74) mmol/L
  Average of 7-point SMPG at Week 30, Median: 8.26 mmol/L
[2]
  % of patients with events adjudicated as allergic reaction by ARAC: Any category, Any event: 0.3%
  % of patients with events adjudicated as allergic reaction by ARAC: Not Related to IMP: 0.3%
  % of patients with events adjudicated as allergic reaction by ARAC: Other, Rhinitis allergic: 0.3%
  % of patients with events adjudicated as allergic reaction by ARAC: category Other: 0.3%
  Events adjudicated as allergic reaction by ARAC: One
  Number of patients with events adjudicated as allergic reaction by ARAC: Any category, Any event: 1
  Number of patients with events adjudicated as allergic reaction by ARAC: Not Related to IMP: 1
  Number of patients with events adjudicated as allergic reaction by ARAC: Other, Rhinitis allergic: 1
  Number of patients with events adjudicated as allergic reaction by ARAC: category Other: 1
[3]
  % of patients experiencing injection site reactions: Any injection site reactions: 0.5%
  % of patients experiencing injection site reactions: Injection site hypertrophy: 0.3%
  % of patients experiencing injection site reactions: Injection site reaction: 0.3%
  % of patients experiencing injection site reactions: PTs coded from the investigator reported terms: 0.5%
  Number of patients experiencing injection site reactions: Any injection site reactions: 2
  Number of patients experiencing injection site reactions: Injection site hypertrophy: 1
  Number of patients experiencing injection site reactions: Injection site reaction: 1
  Number of patients experiencing injection site reactions: PTs coded from the investigator reported terms: 2
  Patients who experienced injection site reactions: 2 patients
[4]
  Any injection site reactions: 8 (1.7%) Number (%)
  Injection site bruising: 4 (0.9%) Number (%)
  Injection site discomfort: 0 Number (%)
  Injection site erythema: 0 Number (%)
  Injection site haemorrhage: 2 (0.4%) Number (%)
  Injection site irritation: 0 Number (%)
  Injection site nodule: 0 Number (%)
  Injection site pain: 2 (0.4%) Number (%)
  Injection site papule: 0 Number (%)
  Injection site rash: 0 Number (%)
  Injection site reactions, % of patients: 1.7%
  Injection site reactions: PTs coded from the ARAC diagnosis terms: 0 Number (%)
  Injection site reactions: PTs coded from the investigator reported terms: 8 (1.7%) Number (%)
  Injection site swelling: 1 (0.2%) Number (%)
  Injection site warmth: 1 (0.2%) Number (%)
[5]
  % of patients with HbA1c ≤[…] at Week 30: (39.5%)
  Number of patients with HbA1c ≤[…] at Week 30: 184 patients
[5]; listed as insulin glargine
  % of patients with HbA1c ≤[…] at Week 30: 39.5%
